US20180371066A1

Key:
PEP_2875800 = target: T1, PEP_2875800; test: peptide array of 15-mers of human tau probed with the antibody; label LIN
T1 sequence (peptide): DHAGTYGLGDRKDQG

PEP_2875802 = target: T2, PEP_2875802; test: as above
T2 sequence (peptide): HAGTYGLGDRKDQGG

PEP_2875828 = target: T3, PEP_2875828; test: as above
T3 sequence (peptide): GGYTMHQDQEGDTDA

PEP_2875830 = target: T4, PEP_2875830; test: as above
T4 sequence (peptide): GYTMHQDQEGDTDAG

PEP_2875801 = target: T5, PEP_2875801; test: peptide array of 15-mers of human tau probed with the antibody; label LIN.AA (double alanine)
T5 sequence (peptide): DHAGTYGLGAAKDQG

PEP_2875803 = target: T6, PEP_2875803; test: as above
T6 sequence (peptide): HAGTYGLGDAADQGG

PEP_2875805 = target: T7, PEP_2875805; test: as above
T7 sequence (peptide): AGTYGLGDRAAQGGY

PEP_2875807 = target: T8, PEP_2875807; test: as above
T8 sequence (peptide): GTYGLGDRKAAGGYT

PEP_2875813 = target: T9, PEP_2875813; test: as above
T9 sequence (peptide): GLGDRKDQGAATMHQ

PEP_2875815 = target: T10, PEP_2875815; test: as above
T10 sequence (peptide): LGDRKDQGGAAMHQD

PEP_2875829 = target: T11, PEP_2875829; test: as above
T11 sequence (peptide): GGYTMHQDQAADTDA

B1: murine anti-tau antibody HJ8.5 (antibody, V domains shown)
VH: EVKVEESGGGLVQPGGSMKLSCVVSGFTFSNYWVNWVRQSPEKGLEWVAQIRLKSDNYATHYEESVKGRFTISRDDSKSSVYLQMNNLRAEDSGIYYCTNWEDYWGQGTTLTVSS
VL: DIVLTQSPASLAVSLGQRATISCRASQSVSTSRYSYIHWYQQKPGQPPKLLIKYASNLESGVPARFSGSGSGTDFTLNIHPLEEEDAATYYCHHSWEIPLTFGAGTKLELK
- Binding Signal (PEP_2875800): 61
- Binding Signal (PEP_2875802): 63
- Binding Signal (PEP_2875828): 109
- Binding Signal (PEP_2875830): 77
- Binding Signal (PEP_2875801): 52
- Binding Signal (PEP_2875803): 51
- Binding Signal (PEP_2875805): 58
- Binding Signal (PEP_2875807): 110
- Binding Signal (PEP_2875813): 80
- Binding Signal (PEP_2875815): 69
- Binding Signal (PEP_2875829): 106

B2: VH1/VK2 humanized anti-tau antibody (C2N-8E12) (antibody, human IgG4 S228P, kappa, V domains shown)
VH: EVKVVESGGGLVQPGGSMKLSCVVSGFTFSNYWVNWVRQAPGKGLEWVAQIRLKSDNYATHYEESVKGRFTISRDDSKSSVYLQMNNLRAEDSGIYYCTNWEDYWGQGTTVTVSS
VL: DIVLTQSPDSLAVSLGERATISCRASQSVSTSRYSYIHWYQQKPGQPPKLLIKYASNLESGVPSRFSGSGSGTDFTLNIHPLEPEDFATYYCHHSWEIPLTFGQGTKLEIKR
- Binding Signal (PEP_2875800): 78
- Binding Signal (PEP_2875802): 65
- Binding Signal (PEP_2875828): 110
- Binding Signal (PEP_2875830): 97
- Binding Signal (PEP_2875801): 90
- Binding Signal (PEP_2875803): 65
- Binding Signal (PEP_2875805): 76
- Binding Signal (PEP_2875807): 114
- Binding Signal (PEP_2875813): 65
- Binding Signal (PEP_2875815): 99
- Binding Signal (PEP_2875829): 118
